One may read the Km as the concentration of substrate that gives half-maximal velocity. Broadly, the Vmax is the top rate of the reaction or transport when substrate is in excess. Usually kcat stands for the number of substrate molecules converted per active site and unit of time at saturation. Usually kcat/Km stands for the second-order rate constant that governs catalysis at low substrate concentration.

Substrate in this data set: CC(=O)CC(=O)SCCNC(=O)CCNC(=O)[C@H](O)C(C)(C)COP(=O)(O)OP(=O)(O)OC[C@H]1O[C@@H](n2cnc3c(N)ncnc32)[C@H](O)[C@@H]1OP(=O)(O)O
In words: purified protein. In kind it is biochemical, Cupriavidus necator. The following applies: 200 μM NADPH, 1 to 20 μM acetoacetyl-CoA, 100 mM Tris-HCl pH 8.0, 30 °C.

The mark [1] stands for this setting: substrate inhibition above 12 μM.

B1: PhaB1 (Cupriavidus necator H16) (protein)
chain: MTQRIAYVTGGMGGIGTAICQRLAKDGFRVVAGCGPNSPRREKWLEQQKALGFDFIASEGNVADWDSTKTAFDKVKSEVGEVDVLINNAGITRDVVFRKMTRADWDAVIDTNLTSLFNVTKQVIDGMADRGWGRIVNISSVNGQKGQFGQTNYSTAKAGLHGFTMALAQEVATKGVTVNTVSPGYIATDMVKAIRQDVLDKIVATIPVKRLGLPEEIASICAWLSSEESGFSTGADFSLNGGLHMG
In the case of B1, under setting [1], the Km worked out at 1.99 ± 0.23 µM, the maximum rate (Vmax) came to 162 µmol/min/mg, the kcat stood at 71.2 ± 2.7 s⁻¹ and the kcat/Km was 3.58e+07 ± 4.4e+06 M⁻¹ s⁻¹.

B2: PhaB1 (Cupriavidus necator H16; Y185F) (protein)
chain: MTQRIAYVTGGMGGIGTAICQRLAKDGFRVVAGCGPNSPRREKWLEQQKALGFDFIASEGNVADWDSTKTAFDKVKSEVGEVDVLINNAGITRDVVFRKMTRADWDAVIDTNLTSLFNVTKQVIDGMADRGWGRIVNISSVNGQKGQFGQTNYSTAKAGLHGFTMALAQEVATKGVTVNTVSPGFIATDMVKAIRQDVLDKIVATIPVKRLGLPEEIASICAWLSSEESGFSTGADFSLNGGLHMG
As for B2, the Km worked out at 86.2 ± 20.6 µM, the Vmax is 127 µmol/min/mg, the turnover number (kcat) stood at 55.8 ± 7.6 s⁻¹ and the kcat/Km worked out at 650000 ± 180000 M⁻¹ s⁻¹.

B3: PhaB1 (Cupriavidus necator H16; N142V/Y185F) (protein)
chain: MTQRIAYVTGGMGGIGTAICQRLAKDGFRVVAGCGPNSPRREKWLEQQKALGFDFIASEGNVADWDSTKTAFDKVKSEVGEVDVLINNAGITRDVVFRKMTRADWDAVIDTNLTSLFNVTKQVIDGMADRGWGRIVNISSVVGQKGQFGQTNYSTAKAGLHGFTMALAQEVATKGVTVNTVSPGFIATDMVKAIRQDVLDKIVATIPVKRLGLPEEIASICAWLSSEESGFSTGADFSLNGGLHMG
Regarding B3, the Km turned out to be 109 ± 38 µM, the Vmax is 53.9 µmol/min/mg, the kcat came out at 23.7 ± 3.7 s⁻¹ and the kcat/Km came to 220000 ± 80000 M⁻¹ s⁻¹.

B4: PhaB1 (Cupriavidus necator H16; N142V) (protein)
chain: MTQRIAYVTGGMGGIGTAICQRLAKDGFRVVAGCGPNSPRREKWLEQQKALGFDFIASEGNVADWDSTKTAFDKVKSEVGEVDVLINNAGITRDVVFRKMTRADWDAVIDTNLTSLFNVTKQVIDGMADRGWGRIVNISSVVGQKGQFGQTNYSTAKAGLHGFTMALAQEVATKGVTVNTVSPGYIATDMVKAIRQDVLDKIVATIPVKRLGLPEEIASICAWLSSEESGFSTGADFSLNGGLHMG
As for B4, the Km was found to be 58.5 ± 18.1 µM, the Vmax was 175 µmol/min/mg, the kcat turned out to be 76.7 ± 2.7 s⁻¹ and the catalytic efficiency (kcat/Km) was found to be 1.31e+06 ± 470000 M⁻¹ s⁻¹.

For the origin of these results see paper PMC6716841, “Modification of acetoacetyl-CoA reduction step in Ralstonia eutropha for biosynthesis of poly(3-hydroxybutyrate-co-3-hydroxyhexanoate) from structurally unrelated compounds” (Microbial Cell Factories, 2019).
